Experiments:
[1] = molecular target: DIII of HSA (residues 381-585) with C-terminal GST (human); assay: SPR; Biacore T200; albumin variants amine-coupled on CM5 (~200 or 500 RU); monomeric His-tagged hFcRn or mFcRn injected in serial dilutions; phosphate buffer (177 mM phosphate, 85 mM NaCl, 0.05% Tween 20) pH 5.5, 30 µl/min, 25 °C; 1:1 Langmuir model
[2] = molecular target: DIII of MSA (residues 381-584) with C-terminal GST (mouse); assay: as above
[3] = molecular target: HSA K573P with C-terminal GST (human); assay: as above
[4] = molecular target: HSA N111S with C-terminal GST (human); assay: as above
[5] = molecular target: HSA R114P with C-terminal GST (human); assay: as above
[6] = molecular target: HSA-mDI (HSA with mouse DI, residues 1-190 from MSA) with C-terminal GST (mouse | human); assay: as above
[7] = molecular target: HSA-mLoopI + II (HSA T83N/M87L/N111S/R114P) with C-terminal GST (human); assay: as above
[8] = molecular target: MSA P573K with C-terminal GST (mouse); assay: as above
[9] = molecular target: MSA-hDI (MSA with human DI, residues 1-190 from HSA) with C-terminal GST (human | mouse); assay: as above
[10] = molecular target: MSA-hLoopI + II (MSA N83T/L87M/S111N/P114R) with C-terminal GST (mouse); assay: as above
[11] = molecular target: wild-type mouse serum albumin with C-terminal GST (mouse); assay: SPR; albumin immobilised (200 RU) on CM5 chip by amine coupling, serial dilutions of monomeric His-tagged FcRn injected; pH 5.5, 0.005% Tween20, 30 µl/min, 25 °C; 1:1 Langmuir model
wild-type mouse serum albumin with C-terminal GST (mouse), sequence (P07724 25-608): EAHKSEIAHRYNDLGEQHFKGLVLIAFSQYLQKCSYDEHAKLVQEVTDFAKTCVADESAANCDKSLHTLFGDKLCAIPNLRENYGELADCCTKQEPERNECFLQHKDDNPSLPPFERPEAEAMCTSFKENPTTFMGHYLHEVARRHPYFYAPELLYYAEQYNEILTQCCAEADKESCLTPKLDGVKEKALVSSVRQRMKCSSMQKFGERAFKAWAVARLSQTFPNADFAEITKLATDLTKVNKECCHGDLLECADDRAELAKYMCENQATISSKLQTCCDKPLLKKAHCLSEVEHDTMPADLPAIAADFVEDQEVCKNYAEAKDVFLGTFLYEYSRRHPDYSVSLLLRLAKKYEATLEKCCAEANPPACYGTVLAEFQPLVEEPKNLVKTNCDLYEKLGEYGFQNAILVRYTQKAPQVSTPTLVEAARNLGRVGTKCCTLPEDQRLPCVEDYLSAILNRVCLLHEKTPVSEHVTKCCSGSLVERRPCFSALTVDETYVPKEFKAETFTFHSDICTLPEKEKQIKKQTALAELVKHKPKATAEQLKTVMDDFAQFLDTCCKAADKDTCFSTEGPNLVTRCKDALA

| Kd [2] | koff [2] | kon [2] | Kd [3] | koff [3] | kon [3] | Kd [9] | koff [9] | kon [9] | Kd [10] | koff [10] | kon [10] | Substance | other results |
| --- | --- | --- | --- | --- | --- | --- | --- | --- | --- | --- | --- | --- | --- |
| 119 nM | 0.0057 s⁻¹ | 48000 M⁻¹ s⁻¹ | 22.2 nM | 0.0006 s⁻¹ | 27000 M⁻¹ s⁻¹ | 70.2 nM | 0.0047 s⁻¹ | 67000 M⁻¹ s⁻¹ | 145 nM | 0.0074 s⁻¹ | 51000 M⁻¹ s⁻¹ | soluble monomeric His-tagged human neonatal Fc receptor (hFcRn) (from UniProt P55899 24-297; P61769 21-119) | Kd [1]: 3170 nM; koff [1]: 0.0349 s⁻¹; kon [1]: 11000 M⁻¹ s⁻¹; Kd [4]: 162 nM; koff [4]: 0.006 s⁻¹; kon [4]: 37000 M⁻¹ s⁻¹; Kd [5]: 554 nM; koff [5]: 0.0122 s⁻¹; kon [5]: 22000 M⁻¹ s⁻¹; Kd [6]: 1440 nM; koff [6]: 0.0202 s⁻¹; kon [6]: 14000 M⁻¹ s⁻¹; Kd [7]: 823 nM; koff [7]: 0.0214 s⁻¹; kon [7]: 26000 M⁻¹ s⁻¹; Kd [8]: 3670 nM; koff [8]: 0.0734 s⁻¹; kon [8]: 20000 M⁻¹ s⁻¹ |
|  |  |  |  |  |  |  |  |  |  |  |  | soluble mouse neonatal Fc receptor (mFcRn), His-tagged, monomeric (from UniProt Q61559 22-365; P01887 21-119) | Kd [11]: 324 nM; koff [11]: 0.0123 s⁻¹; kon [11]: 38000 M⁻¹ s⁻¹ |
| 620 nM | 0.0093 s⁻¹ | 15000 M⁻¹ s⁻¹ | 1230 nM | 0.0197 s⁻¹ | 16000 M⁻¹ s⁻¹ | 705 nM | 0.0148 s⁻¹ | 21000 M⁻¹ s⁻¹ | 375 nM | 0.0075 s⁻¹ | 20000 M⁻¹ s⁻¹ | soluble monomeric His-tagged mouse neonatal Fc receptor (mFcRn) (from UniProt Q61559 22-297; P01887 21-119) |  |
